{
  "source": "patent US20250313602A1",
  "biological_target": "FcRn",
  "sequence (main, as listed by the source, chain 1 of 2)": "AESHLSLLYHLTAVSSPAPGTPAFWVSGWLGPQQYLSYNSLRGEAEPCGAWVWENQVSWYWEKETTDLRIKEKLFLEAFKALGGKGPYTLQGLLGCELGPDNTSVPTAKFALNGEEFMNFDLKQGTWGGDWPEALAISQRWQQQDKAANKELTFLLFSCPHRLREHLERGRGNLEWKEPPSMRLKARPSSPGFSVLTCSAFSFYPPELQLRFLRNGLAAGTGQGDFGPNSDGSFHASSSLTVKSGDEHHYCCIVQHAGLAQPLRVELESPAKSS",
  "sequence (main, as listed by the source, chain 2 of 2)": "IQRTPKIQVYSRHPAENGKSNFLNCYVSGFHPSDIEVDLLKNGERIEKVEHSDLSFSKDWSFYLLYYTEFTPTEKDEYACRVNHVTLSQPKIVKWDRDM",
  "assay": "BLI",
  "note": "pKd: −log10 of the molar value. Where “and” joins values, the source holds several entries; their conditions need not be identical. Equal entries are not always repeated.",
  "data": [
    {"substance": "Herceptin", "values": [
      {"measurement": "pKd", "value": "8.55 and 8.90"}
    ]}
  ]
}
